# Measurements from FireProtDB (doi:10.1016/0003-9861(92)90047-z).
# B1: Tryptophan synthase alpha chain, P0A877 (parent)
# chain: MERYESLFAQLKERKEGAFVPFVTLGDPGIEQSLKIIDTLIEAGADALELGIPFSDPLADGPTIQNATLRAFAAGVTPAQCFEMLALIRQKHPTIPIGLLMYANLVFNKGIDEFYAQCEKVGVDSVLVADVPVEESAPFRQAALRHNVAPIFICPPNADDDLLRQIASYGRGYTYLLSRAGVTGAENRAALPLNHLVAKLKEYNAAPPLQGFGISAPDQVKAAIDAGAAGAISGSAIVKIIEQHINEPEKMLAALKVFVQPMKAATRS
# Variants of: B1
# Conditions: Escherichia coli (strain K12); pH 7.2; Thermal; DSC; Sodium phosphate 1 mM; reversible: yes; structure 1WQ5; whole UniProt chain shown
Variant,Tm,"change of melting temperature, mutant - wild type (higher = more stable)"
Q65R,58.9 °C,-0.6 °C
A67V,56.8 °C,-2.7 °C
F114L,56.2 °C,-3.3 °C
G51D,55 °C,-4.5 °C
T63K,56.2 °C,-3.3 °C
E49G,57.7 °C,-1.8 °C
Y102C,60.9 °C,1.4 °C
Y102H,60.3 °C,0.8 °C
P78L,61.4 °C,1.9 °C
P78S,57.9 °C,-1.6 °C
S33L,51.9 °C,-7.6 °C
M101T,67.1 °C,7.6 °C
M101V,67.1 °C,7.6 °C
M101I,63.2 °C,3.7 °C
P28L,54.9 °C,-4.6 °C
Y115C,57.2 °C,-2.3 °C
D112N,56.4 °C,-3.1 °C
D112G,54.4 °C,-5.1 °C
T24M,61.8 °C,2.3 °C
P21S,55.2 °C,-4.3 °C
S6P,54.3 °C,-5.2 °C
P53H,56.2 °C,-3.3 °C
P53T,55.2 °C,-4.3 °C
D60G,56.9 °C,-2.6 °C
P62Q,58.9 °C,-0.6 °C
F22S,60.3 °C,0.8 °C
D56G,57.5 °C,-2 °C
